Assay results from patent US20060264369, “Aptamers to von Willebrand Factor and their use as thrombotic disease therapeutics” (published 2006).

Columns and labels:
[1] = biological target: von Willebrand factor A1 domain (human) (Homo sapiens, UniProt P04275 SEQ:13-246); experiment: filter; 100 nM protein
Excerpt: When a significant positive ratio of binding of RNA in the presence of human or rabbit vWF A1 domain (SEQ ID NOS […] and 6, respectively) versus in the absence of protein was seen, the pools were cloned using the TOPO TA cloning kit (Invitrogen Cat.# 45-0641, Carlsbad, Calif.) according to the manufacturer's instructions. Round 9 and 12 pool templates were cloned and sequenced (185 total sequences), producing 78 unique clones within 3 sequence families. All unique clones were transcribed, desalted, 5-³²P end-labeled, and assayed in a 3-point dot blot screen (no protein target control, 100 nM human vWF A1 domain (SEQ ID NO 5), or 100 nM rabbit vWF A1 domain (SEQ ID NO 6). The data are presented in the third and fourth columns of Table 9 below as the ratio of the fraction of the aptamer bound to the nitrocellulose in the presence of the target protein to the fraction of aptamer bound in the absence of the target protein. Of the three sequence families, members of Family #1 and # 2 and two individual, non-family aptamers, bound to both human vWF domain A1 (SEQ ID NO 5) and rabbit vWF domain A1 (SEQ ID NO 6).

[2] = biological target: T1, von Willebrand factor full length (Homo sapiens, UniProt P04275 SEQ:764-2813); experiment: filter; 42% bound at 100 nM; details: tags: Calbiochem 681300
Method: (§1) For KD determination, chemically synthesized aptamers were purified using denaturing polyacrylamide gel electrophoresis, 5′end labeled with γ-³²P ATP and were tested for direct binding to full length human vWF (Calbiochem Cat.# 681300, La Jolla, Calif.). An 8 point protein titration was used in the dot blot binding assay (100 nM, 30 nM, 10 nM, 3 nM, 1 nM, 300 pM, 100 pM, 0 pM)) in 1× Dulbecco's PBS containing […] (final volume of 50 uL) for 30 minutes at room temperature. KD values were calculated by fitting the equation y=(max/(1+K/protein))+yint using KaleidaGraph (KaleidaGraph v. 3.51, Synergy Software).

[3] = biological target: T1, von Willebrand factor full length; experiment: filter; 32% bound at 100 nM; details: tags: Calbiochem 681300
Method: as §1

[4] = biological target: T1, von Willebrand factor full length; experiment: filter; 54% bound at 100 nM; details: tags: Calbiochem 681300
Method: as §1

B1: AMX203.F9 (mixed)
DNA: GGAGCGCACTCAGCCACTGAAGGGTAAGGACGAGGAGGGTATACAGTGTGCGCGTGTATTTCGACCTCTCTGCTAGC
modifications: ribo purines, deoxy pyrimidines
**Q.** With B1 as the binder, how does the binding signal [1] read?
**A.** 1.45 ratio to no protein

B2: ARC1234 (ssDNA)
DNA: GGCGTGCAGTGCCTTCGGCCGTGCGGTGCCTCCGTCACGCC
modifications: 2'-OMe at 41; 3'-idT
**Q.** For B2, which Kd [2] is on record?
**A.** 2 nM

B3: ARC1236 (ssDNA)
DNA: GGCGUGCAGTGCCTTCGGCCGTGCGGTGCCTCCGTCACGCC
modifications: 2'-OMe at 3,5,36,38,40,41; 3'-idT
**Q.** Which Kd [3] does the source give for B3 here?
**A.** 3 nM

B4: ARC1207 (ssDNA)
DNA: GGCGTGCAGTGCCUTCGGCCGTGCGGTGCCTCCGTCACGCC
modifications: 2'-OMe at 14 (mU); 3'-idT
**Q.** With B4 as the binder, how does the Kd [4] read?
**A.** 2 nM
